The values that follow come from patent US20150147318A1 (ZOETIS SERVICES, published 2015).

Numbering of substitutions follows the chain as printed. In names and notes the source's numbering stands.

Assay [1] concerns the target T1, recombinant canine Nerve Growth Factor (Canis lupus familiaris NGF) (canine (Canis lupus familiaris), UniProt Q29074 110-229 (pig entry), limits assumed).
T1 chain: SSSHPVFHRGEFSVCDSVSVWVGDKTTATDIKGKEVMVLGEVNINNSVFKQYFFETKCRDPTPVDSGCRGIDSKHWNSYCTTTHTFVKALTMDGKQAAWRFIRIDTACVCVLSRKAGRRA
The assay can be described thus: cell-based or functional assay.

For assay [2], the target named is T1, recombinant canine Nerve Growth Factor …. The assay can be described thus: SPR trkA inhibition: mAb pre-incubated with NGF, binding of NGF to trkA measured in RU.
For assay [3] the target is unchanged. The assay can be described thus: method not stated; recombinant canine NGF.
Assay [4] has the same target. The assay can be described thus: SPR, Biacore T100, dog NGF; run 11/29.
For assay [5] the target is unchanged. The assay can be described thus: SPR, Biacore T100, dog NGF; run 11/24.
Assay [6] has the same target. Put plainly: SPR, Biacore T100, dog NGF; run 11/22. In general terms: SPR reads the build-up and loss of mass on a sensor chip optically.

B1: murine anti-NGF monoclonal antibody RN911 (antibody, V domains shown)
VH: QVQLKESGPGLVAPSQSLSITCTVSGFSLIGYDINWVRQPPGKGLEWLGMIWGDGTTDYNSALKSRLSISKDNSKSQVFLKMNSLRTDDTATYSCARGGYYYGTSYYFDYWGQGTTLTVSS
VL: DIQMTQTTSSLSASLGDRVTISCRASQDISNHLNWYQQKPDGTVKLLIYYISRFHSGVPSRFSGSGSGTDYSLTISNLEQEDIATYFCQQSKTLPYTFGGGTKLEIKR
notes: Mouse mAb; also called MU-RN911
Regarding B1, in assay [1], the “EC50, pERK inhibition, PC-12 (Rat Neuronal), pre-incubation 1 hour, 2/23/11 (RN911)” value is 0.67 nM; the “EC50, pERK inhibition, PC-12 (Rat Neuronal), pre-incubation 1 hour, 3/26/11 (RN911)” value is 0.46 nM; the “EC50, pERK inhibition, huTrkA (CHO), pre-incubation 1 hour, 3/26/11 (RN911)” value turned out to be 0.47 nM; the “EC50, pERK inhibition, huTrkA (CHO), pre-incubation 1 hour, 3/31/11 (RN911)” value turned out to be 0.62 nM. The “EC50, pERK inhibition, huTrkA (CHO), pre-incubation 6 hour, 3/31/11 (RN911)” value in assay [1] turned out to be 0.57 nM. For the same molecule, the inhibition constant (Ki) – broadly, a dissociation constant, usually derived from enzyme kinetics or from competition with a known ligand – in assay [2] amounted to 4200 pM. The Kd (in general, the constant that tells how readily two partners part at equilibrium) in assay [3] was determined as 755 pM.

B2: LTM construct 45 (HC Y100W, LC H32N) (antibody, V domains shown)
VH: EVQLVESGGDLARPGGSLKLSCVVSGFSLIGYDINWVRQAPGKGLQWVTMIWGDGTTDYNSALKSRFTVSRDNAMNTVYLQMNSLRVEDTAVYYCARGGWYYGTSYYFDYWGQGTLVTVSS
VL: DIVMTQTPLSLSVSPGETASISCRASQDISNNLNWFRQKPGQSPQRLIYYISRFHSGVPDRFSGSGSGTDFTLRISRVEADDTGVYYCQQSKTLPYTFGAGTKLEIK
notes: Point mutant of canE3M65 as full IgG; Constant regions are not restated
For B2, the figures for the Kd in assay [4] and in assay [5] were 4350 pM and 2100 pM, respectively.

B3: LTM construct 35 (HC Y100W, LC D28S, H32N, K92H) (antibody, V domains shown)
VH: B2 VH
VL: B2 VL with D28S, K92H
notes: as for B2
Turning to B3, the results for the Kd in assay [4] and in assay [6] were 810 pM and 237 pM, respectively.

B4: LTM109 (HC Y101W, G103A; LC D28S, H32N, K92H) (antibody, V domains shown)
VH: B2 VH with W100Y, Y101W, G103A
VL: B2 VL with D28S, K92H
notes: Full IgG; constant regions are not restated; also called CAN-LTM109-VH / CAN-LTM109-VL
Take B4: the dissociation constant (Kd) in assay [4] came out at 748 pM; in assay [5] it was 515 pM.

B5: LTM construct 34 (HC Y100W, LC D28S, H32N) (antibody, V domains shown)
VH: B2 VH
VL: B2 VL with D28S
notes: as for B2
Consider B5, for which the dissociation constant (Kd) in assay [4] amounted to 885 pM; in assay [6] it was 639 pM.

B6: LTM construct 43 (HC Y100W, LC K92H) (antibody, V domains shown)
VH: B2 VH
VL: B2 VL with N32H, K92H
notes: as for B2
Consider B6, for which, in assay [5], the Kd is 5670 pM.

B7: LTM construct 44 (HC Y100W, LC S91E) (antibody, V domains shown)
VH: B2 VH
VL: B2 VL with N32H, S91E
notes: as for B2
For B7, the binding result in assay [5] is recorded as “no binding”.
